Paper PMC2176068, “Hepatoma derived growth factor binds DNA through the N-terminal PWWP domain”

What was measured:
[1] = target: GST-HDGF Δ1-140 (Homo sapiens, UniProt P51858 1-140); assay: EMSA; 10 mM Tris pH 7.5, 50 mM KCl, 1 mM DTT, 5% glycerol, 0.05% NP-40, 0.1 ug sheared salmon sperm DNA; 1 ug protein, 0.25 pmol probe, 30 min on ice; 5% PAGE in 0.1x TBE; settings: protein: recombinant; tags: N-terminal GST; label: 5' biotin (sense strand); blunt
[2] = target: TNT-HDGF (untagged) (UniProt P51858 1-240); assay: as above; settings: protein: ivt; tags: none; label: 5' biotin (sense strand); blunt
[3] = target: His-HDGF-GFP (UniProt P51858 1-240); assay: as above; settings: protein: recombinant; tags: His, GFP; label: 5' biotin (sense strand); blunt
[4] = target: GST-HDGF Δ70-237 (Homo sapiens, UniProt P51858 70-237); assay: as above; settings: protein: recombinant; tags: N-terminal GST; label: 5' biotin (sense strand); blunt
[5] = target: GST-HDGF Δ1-110 (Homo sapiens, UniProt P51858 1-110); assay: as above; settings: protein: recombinant; tags: N-terminal GST; label: 5' biotin (sense strand); blunt
[6] = target: T1, GST-HDGF (Homo sapiens, UniProt P51858 1-240); assay: as above; settings: protein: recombinant, tags: N-terminal GST (pGEX-4T2), blunt
[7] = target: GST-HDGF Δ1-146 (Homo sapiens, UniProt P51858 1-146); assay: as above; settings: protein: recombinant; tags: N-terminal GST; label: 5' biotin (sense strand); blunt
[8] = target: T1, GST-HDGF; assay: competition; 100x unlabeled, labeled 80 bp probe; 10 mM Tris pH 7.5, 50 mM KCl, 1 mM DTT, 5% glycerol, 0.05% NP-40, 0.1 ug sheared salmon sperm DNA; 1 ug protein, 0.25 pmol probe, 30 min on ice; 5% PAGE in 0.1x TBE; settings: protein: recombinant, tags: N-terminal GST (pGEX-4T2)

T1 sequence (P51858 whole entry): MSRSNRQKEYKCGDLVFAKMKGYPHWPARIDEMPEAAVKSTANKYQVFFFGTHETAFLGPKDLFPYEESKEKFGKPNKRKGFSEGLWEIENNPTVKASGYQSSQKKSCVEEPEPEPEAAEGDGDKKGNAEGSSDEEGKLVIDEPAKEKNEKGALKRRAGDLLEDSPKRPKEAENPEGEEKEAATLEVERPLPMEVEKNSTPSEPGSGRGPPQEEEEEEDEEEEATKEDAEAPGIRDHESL
Chain of GST-HDGF Δ70-237 (P51858 70-237, stated change not applied): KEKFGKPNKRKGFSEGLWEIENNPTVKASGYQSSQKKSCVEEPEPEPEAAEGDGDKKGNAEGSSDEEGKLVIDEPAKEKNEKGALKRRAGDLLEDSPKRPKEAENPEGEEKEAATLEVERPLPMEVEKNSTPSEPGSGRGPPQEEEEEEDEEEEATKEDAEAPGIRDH
Chain of GST-HDGF Δ1-146 (P51858 1-146, stated change not applied): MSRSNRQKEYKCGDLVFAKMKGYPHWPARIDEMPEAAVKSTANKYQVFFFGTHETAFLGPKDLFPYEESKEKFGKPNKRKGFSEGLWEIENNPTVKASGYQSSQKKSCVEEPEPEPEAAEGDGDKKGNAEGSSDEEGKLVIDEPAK
Chain of GST-HDGF Δ1-110 (P51858 1-110, stated change not applied): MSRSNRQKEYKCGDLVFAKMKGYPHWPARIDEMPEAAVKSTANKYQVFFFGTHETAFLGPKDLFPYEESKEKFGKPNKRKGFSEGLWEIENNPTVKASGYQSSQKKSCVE
Chain of TNT-HDGF (untagged) (P51858 whole entry): as the sequence (P51858 whole entry) above
Chain of His-HDGF-GFP (P51858 whole entry): as above
Chain of GST-HDGF Δ1-140 (P51858 1-140, stated change not applied): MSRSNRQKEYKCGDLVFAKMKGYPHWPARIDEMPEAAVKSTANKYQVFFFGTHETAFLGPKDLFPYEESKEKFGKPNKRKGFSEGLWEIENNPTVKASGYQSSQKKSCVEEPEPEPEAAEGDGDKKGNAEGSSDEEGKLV

B1: SMYD1 promoter 80 bp probe (dsDNA)
DNA 1: CAGGCTGGTCTTGAACTCCTGACCTCAGATGATCCATGTGCCTCGGCCTCCCAAGGTGGGGATTACAGGCGTGAGCCACC
DNA 2: GGTGGCTCACGCCTGTAATCCCCACCTTGGGAGGCCGAGGCACATGGATCATCTGAGGTCAGGAGTTCAAGACCAGCCTG
[1]
  binding result: binds
[2]
  binding result: binds
[3]
  binding result: binds
[4]
  binding result: no binding
[5]
  binding result: binds
[6]; label: 5' biotin (sense strand)
  binding result: binds
[7]
  binding result: binds

B2: 80 bp specific competitor (unlabeled) (dsDNA)
DNA 1: B1 DNA 1
DNA 2: B1 DNA 2
[8]; blunt
  binding result: binds

B3: 37 bp minimal probe (dsDNA)
DNA 1: CTTGAACTCCTGACCTCAGATGATCCATGTGCCTCGG
DNA 2: CCGAGGCACATGGATCATCTGAGGTCAGGAGTTCAAG
[6]; label: 5' biotin
  binding result: binds

B4: non-specific competitor (dsDNA)
DNA 1: TGCTGTTGACAGTGAGCGCGGCCAGCTTATAGTCATATATTAGTGAAGCCACAGATGTAATATATGACTATAAGCTGGCCTTGCCTACTGCCTCGGA
DNA 2: TCCGAGGCAGTAGGCAAGGCCAGCTTATAGTCATATATTACATCTGTGGCTTCACTAATATATGACTATAAGCTGGCCGCGCTCACTGTCAACAGCA
[8]
  binding result: no binding
